T1: E. coli-expressed recombinant cynomolgus IL-13 (cynomolgus, UniProt Q5I6E4 21-132 (Macaca thibetana entry))
T1 chain: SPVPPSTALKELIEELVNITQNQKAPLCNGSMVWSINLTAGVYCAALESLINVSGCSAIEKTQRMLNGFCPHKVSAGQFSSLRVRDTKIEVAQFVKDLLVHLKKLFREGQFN

T2: alanine scanning peptide 1 (parental sequence peptide) (human, N-terminal biotin)
T2 construct: also called parental peptide
T2 peptide: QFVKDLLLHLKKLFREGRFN

T3: alanine scanning peptide 62 (human, N-terminal biotin)
T3 peptide: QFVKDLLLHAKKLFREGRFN

T4: alanine scanning peptide 63 (human, N-terminal biotin)
T4 construct: the entry already carries the change; also called K103A peptide
T4 peptide: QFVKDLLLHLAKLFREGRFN

T5: alanine scanning peptide 64 (human, N-terminal biotin)
T5 construct: the entry already carries the change; also called K104A peptide
T5 peptide: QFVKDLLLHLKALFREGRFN

T6: alanine scanning peptide 65 (human, N-terminal biotin)
T6 construct: the entry already carries the change; also called L105A peptide
T6 peptide: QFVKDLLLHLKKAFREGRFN

T7: alanine scanning peptide 66 (human, N-terminal biotin)
T7 construct: the entry already carries the change; also called F106A peptide
T7 peptide: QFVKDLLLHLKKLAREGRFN

T8: alanine scanning peptide 67 (human, N-terminal biotin)
T8 construct: the entry already carries the change; also called R107A peptide
T8 peptide: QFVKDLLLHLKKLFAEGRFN

T9: alanine scanning peptide 68 (human, N-terminal biotin)
T9 peptide: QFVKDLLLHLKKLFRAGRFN


How the values were obtained:
[1] = target: T10, E. coli-expressed recombinant human IL-13 (human, UniProt P35225 35-146); assay: cell-based or functional assay
[2] = target: T1, E. coli-expressed recombinant …; assay: cell-based or functional assay
[3] = target: E. coli-expressed recombinant Q130 human IL-13 (human, UniProt P35225 35-146, limits assumed); assay: cell-based or functional assay
[4] = target: mammalian-expressed (CHO cell) human IL-13 (human, UniProt P35225 35-146, limits assumed); assay: cell-based or functional assay
[5] = target: T2, alanine scanning peptide 1 (parental …); assay: alanine scanning peptide ELISA, n=2
From the text: (§1) An ELISA method was used to detect binding of immobilised biotinylated peptide to the parental mAb 6A1 and L1+A1.
(§2) This was to determine if there was any major plate-to-plate variation and in both cases, there was no apparent variation.

[6] = target: T3, alanine scanning peptide 62; assay: alanine scanning peptide ELISA, n=2
From the text: as §1, §2

[7] = target: T4, alanine scanning peptide 63; assay: alanine scanning peptide ELISA, n=2
From the text: as §1, §2

[8] = target: T5, alanine scanning peptide 64; assay: alanine scanning peptide ELISA, n=2
From the text: as §1, §2

[9] = target: T6, alanine scanning peptide 65; assay: alanine scanning peptide ELISA, n=2
From the text: as §1, §2

[10] = target: T7, alanine scanning peptide 66; assay: alanine scanning peptide ELISA, n=2
From the text: as §1, §2

[11] = target: T8, alanine scanning peptide 67; assay: alanine scanning peptide ELISA, n=2
From the text: as §1, §2

[12] = target: T9, alanine scanning peptide 68; assay: alanine scanning peptide ELISA, n=2
From the text: as §1, §2

[13] = target: T1, E. coli-expressed recombinant …; assay: cynomolgus IL-13 binding sandwich ELISA
[14] = target: T10, E. coli-expressed recombinant human …; assay: BIAcore analysis 1, antibody captured, IL-13 in solution
Procedure: (§3) Completed for both human and cynomolgus IL-13 (E. coli-expressed protein). The quoted KD values are the average from 5 different IL-13 concentration curves (done in triplicate). Note that mass transfer issues were apparent in this analysis and that a modified experimental protocol (to correct for this issue) has been completed in analysis 4 (where no mass transfer issues were present).
(§4) The kinetics analysis was performed on a Biacore 3000 machine, using an antibody capture method. Briefly, for the chimeric 6A1 and humanised antibody constructs Protein A capture was used, whilst for the parental murine 6A1 antibody, capture was by a anti-mouse Fc antibody supplied by Biacore. Briefly, the method is as follows, the capture ligand was immobilised to a CM5 Biosensor chip by primary amine coupling in accordance with Biacore standard protocols and using the reagents supplied in Biacores' primary amine coupling kit. The method involves activation CM5 sensor surface by passing a solution of 50 mM N-hydroxy-succinimide (NHS) and 200 mM N-ethyl-N′-dimethylaminopropyl […] (EDC) over the surface. Then, the capture ligand (dissolved in acetate buffer pH5 or pH4.5) was coupled to the activated sensor surface after which any still activated esters were blocked by an injection of 1M ethanolamine hydrochloride, pH8.5.
(§5) The candidate antibody was then passed over the Protein A or anti-mouse Fc antibody surface, depending on whether it was human or mouse in origin and captured. Once a stable binding signal was seen IL13 was passed over the captured antibody surface at various defined concentrations. The subsequent binding curves were analysed with Biacore analysis software BIAeval v4.1 to determine kinetics. The experiments were carried out using Biacore HBS-EP buffer.

[15] = target: T1, E. coli-expressed recombinant …; assay: as above
Procedure: as §3, §4, §5

[16] = target: T11, native (PBMC derived) human IL-13 (human, UniProt P35225 35-146, limits assumed); assay: ELISA on Th2 cell supernatant read against a standard curve
T11 construct: IL-13 in supernatant of stimulated human CD4+ Th2 cells; also called native human IL-13; Native IL-13

[17] = target: T12, E. coli-expressed recombinant det-1 tagged human IL-13 (human, UniProt P35225 35-146); assay: competition ELISA: inhibition of det-1 tagged human IL-13 binding to human IL-13Rα1-Fc
T12 construct: also called Det-1 tagged human IL-13 (made in-house); not shown: det-1 tag

[18] = target: T12, E. coli-expressed recombinant det-1 …; assay: competition ELISA: inhibition of det-1 tagged human IL-13 binding to human IL-13Rα2-Fc

T12 sequence (P35225 other isoform, or with tags, fused parts or gaps): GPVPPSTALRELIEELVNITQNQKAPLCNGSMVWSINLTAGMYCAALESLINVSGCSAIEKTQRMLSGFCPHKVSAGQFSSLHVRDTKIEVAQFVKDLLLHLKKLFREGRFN
T10 sequence (P35225 other isoform, or with tags, fused parts or gaps): as above
Chain of mammalian-expressed (CHO cell) human IL-13 (P35225 other isoform, or with tags, fused parts or gaps limits assumed): as the sequence (P35225 other isoform, or with tags, fused parts or gaps) above
T11 sequence (P35225 other isoform, or with tags, fused parts or gaps limits assumed): as the sequence (P35225 other isoform, or with tags, fused parts or gaps) above
Chain of E. coli-expressed recombinant Q130 human IL-13 (P35225 35-146 limits assumed): as the sequence (P35225 other isoform, or with tags, fused parts or gaps) above, with R110Q counted along it

Mean ND50 for 2 assays [1] | Mean ND50 for 2 assays [2] | Mean ND50 for 2 assays [3] | Mean ND50 for 2 assays [4] | Average A490 [5] | Average A490 [6] | Average A490 [7] | Average A490 [8] | Average A490 [9] | Average A490 [10] | Average A490 [11] | Average A490 [12] | EC50 [13] | Kd [14] | koff [14] | kon [14] | Kd [15] | koff [15] | kon [15] | Native IL-13 (ng/ml) detected in Th2 supernatant [16] | Binder | other results
0.193 µg/mL | 0.078 µg/mL | 0.213 µg/mL | 0.44 µg/mL | 3.54 A490 | 3.49 A490 | 3.28 A490 | 1.47 A490 | 3.85 A490 | 3.6 A490 | 0.595 A490 | 3.58 A490 | 0.039 µg/mL | 0.035 nM | 6.78e-05 s⁻¹ | 1.96e+06 M⁻¹ s⁻¹ | 0.061 nM | 5.6e-05 s⁻¹ | 914000 M⁻¹ s⁻¹ | 22.5 ng/mL | monoclonal antibody 6A1 (antibody, IgG1, V domains shown, also called 6A1 parental mAb; parental mouse mAb 6A1) VH: EIQLQQSVAELVRPGASVRLSCTASGFYIKDTYMHWVIQRPEQGLEWIGTIDPANGNTKYVPKFQGKATITADTSSNTAYLRLSSLTSEDTAIYYCARSIYDDYHYDDYYAMDYWGQGTSVTVSS VL: DVLMTQTPLSLPVSLGDQASISCRSSQNIVHINGNTYLEWYLQKPGQSPKLLIYKISDRFSGVPDRFSGSGSGTDFTLKISRVEAEDLGVYYCFQGSHVPWTFGGGTKLEIK | IC50 [17]: 0.039 µg/mL; IC50 [18]: 0.02 µg/mL
0.428 µg/mL | 0.078 µg/mL | 0.438 µg/mL | 0.975 µg/mL | 2.85 A490 | 2.83 A490 | 2.65 A490 | 1.82 A490 | 3.02 A490 | 2.84 A490 | 0.816 A490 | 2.81 A490 | 0.021 µg/mL | 0.3 nM | 0.000155 s⁻¹ | 507000 M⁻¹ s⁻¹ | 0.035 nM | 1.55e-05 s⁻¹ | 446000 M⁻¹ s⁻¹ | 25.1 ng/mL | L1+A1 (antibody, human IgG1, kappa, V domains shown, Humanised 6A1, VH construct A1 and VL construct L1, human gamma1 wild type / kappa constant regions; also called A1L1; humanised anti-IL-13 mAb L1+A1) VH: QVQLVQSGAEVKKPGSSVKVSCKASGFYIKDTYMHWVRQAPGQGLEWMGTIDPANGNTKYVPKFQGRVTITADESTSTAYMELSSLRSEDTAVYYCARSIYDDYHYDDYYAMDYWGQGTLVTVSS VL: DIVMTQSPLSLPVTPGEPASISCRSSQNIVHINGNTYLEWYLQKPGQSPRLLIYKISDRFSGVPDRFSGSGSGTDFTLKISRVEADDVGIYYCFQGSHVPWTFGQGTKLEIKR | IC50 [17]: 0.044 µg/mL; IC50 [18]: 0.113 µg/mL

From patent US20110243928A1 (published 2011)
